This note sets out measurements from patent US20140303084A1 (Biogen, published 2014).

The assay concerns the target human Factor IXa (human, UniProt P00740 47-191; P00740 227-461). Nature of the assay: cell-based or functional assay.

Bridge positions count the residues as written; N and C are the ends. Square brackets hold non-standard residues; d marks the D form. Ends that are not written are not given here. NMeW = CN[C@@H](Cc1c[nH]c2ccccc12)C(=O)O; NMeY = CN[C@@H](Cc1ccc(O)cc1)C(=O)O; NMeF = CN[C@@H](Cc1ccccc1)C(=O)O; NMeL = CN[C@@H](CC(C)C)C(=O)O; NMeS = CN[C@@H](CO)C(=O)O; NMeA = CN[C@@H](C)C(=O)O; Sar = CNCC(=O)O

B1: RRAPGKLTCLASyCWLFWTGIA (peptide)
peptide: RRAPGKLTCLAS[dY]CWLFWTGIA
modifications: not fully specified (bridges); printed as RRAPGKLTCLASyCWLFWTGIA; cysteine pairing not given here
As for B1, the “EC50 [µM], FXa generation assay” value was under 0.5 µM.

B2: RRAPGKLTCLA-MeSer-YCWLFWTGIA (peptide)
peptide: RRAPGKLTCLA[NMeS]YCWLFWTGIA
modifications: not fully specified (bridges); printed as RRAPGKLTCLA-MeSer-YCWLFWTGIA; cysteine pairing not given here
In the case of B2, the “EC50 [µM], FXa generation assay” value is under 0.5 µM.

For the molecule RRA[dP]GKLTCLASYCWLFWTGIA (disulfide 9-14 (inferred)) [RRApGKLTCLASYCWLFWTGIA], the “EC50 [µM], FXa generation assay” value was under 0.5 µM.

On to RRAPGKLTCL[dA]SYCWLFWTGIA (not fully specified (bridges); cysteine pairing not given here) [RRAPGKLTCLaSYCWLFWTGIA], for which the “EC50 [µM], FXa generation assay” value was over 1 µM.

B3: RRAPGKLTClASYCWLFWTGIA (peptide)
peptide: RRAPGKLTC[dL]ASYCWLFWTGIA
modifications: not fully specified (C-terminus, bridges); printed as RRAPGKLTClASYCWLFWTGIA; cysteine pairing not given here
B3: the “EC50 [µM], FXa generation assay” value is over 1 µM.

B4: RRAPGKLTCLAS-MeTyr-CWLFWTGIA (peptide)
peptide: RRAPGKLTCLAS[NMeY]CWLFWTGIA
modifications: not fully specified (bridges); printed as RRAPGKLTCLAS-MeTyr-CWLFWTGIA; cysteine pairing not given here
For the molecule B4, the “EC50 [µM], FXa generation assay” value was over 1 µM.

B5: RRAPGKLTCLASYCWLFWTG-MeIle-A (peptide)
peptide: RRAPGKLTCLASYCWLFWTG[MeIle]A
modifications: not fully specified (C-terminus, bridges); printed as RRAPGKLTCLASYCWLFWTG-MeIle-A; cysteine pairing not given here
Consider B5, for which the “EC50 [µM], FXa generation assay” value is over 4 µM.

B6: RRAPGKLTCLASYCWLfWTGIA (peptide)
peptide: RRAPGKLTCLASYCWL[dF]WTGIA
modifications: not fully specified (C-terminus, bridges); printed as RRAPGKLTCLASYCWLfWTGIA; cysteine pairing not given here
Consider B6, for which the “EC50 [µM], FXa generation assay” value is under 0.5 µM.

B7: RRAPGKLTCLASYCWLFWtGIA (peptide)
peptide: RRAPGKLTCLASYCWLFW[dT]GIA
modifications: not fully specified (C-terminus, bridges); printed as RRAPGKLTCLASYCWLFWtGIA; cysteine pairing not given here
As to B7, the “EC50 [µM], FXa generation assay” value is under 0.5 µM.

B8: RRAPGKLtCLASYCWLFWTGIA (peptide)
peptide: RRAPGKL[dT]CLASYCWLFWTGIA
modifications: not fully specified (C-terminus, bridges); printed as RRAPGKLtCLASYCWLFWTGIA; cysteine pairing not given here
Consider B8, for which the “EC50 [µM], FXa generation assay” value was over 1 µM.

B9: RRAPGKLTC-MeLeu-ASYCWLFWTGIA (peptide)
peptide: RRAPGKLTC[NMeL]ASYCWLFWTGIA
modifications: not fully specified (bridges); printed as RRAPGKLTC-MeLeu-ASYCWLFWTGIA; cysteine pairing not given here
As to B9, the “EC50 [µM], FXa generation assay” value was over 1 µM.

B10: RRAPGKLTCLASYCWL-MePhe-WTGIA (peptide)
peptide: RRAPGKLTCLASYCWL[NMeF]WTGIA
modifications: not fully specified (bridges); printed as RRAPGKLTCLASYCWL-MePhe-WTGIA; cysteine pairing not given here
For B10, the “EC50 [µM], FXa generation assay” value was over 1 µM.

B11: RRAPGKLTCLASYCWlFWTGIA (peptide)
peptide: RRAPGKLTCLASYCW[dL]FWTGIA
modifications: not fully specified (bridges); printed as RRAPGKLTCLASYCWlFWTGIA; cysteine pairing not given here
B11: the “EC50 [µM], FXa generation assay” value is over 1 µM.

B12: RRAPGKLTCLASYcWLFWTGIA (peptide)
peptide: RRAPGKLTCLASY[dC]WLFWTGIA
modifications: not fully specified (C-terminus, bridges); printed as RRAPGKLTCLASYcWLFWTGIA; cysteine pairing not given here
Consider B12, for which the “EC50 [µM], FXa generation assay” value was over 1 µM.

On to RRAPG[dK]LTCLASYCWLFWTGIA (disulfide 9-14 (inferred)) [RRAPGkLTCLASYCWLFWTGIA], for which the “EC50 [µM], FXa generation assay” value is under 0.5 µM.

Regarding RRAPGKLTCLASYC[NMeW]LFWTGIA (cysteine pairing not given here) [RRAPGKLTCLASYC-MeTrp-LFWTGIA], the “EC50 [µM], FXa generation assay” value is over 10 µM.

B13: RRAPGKLTCLAsYCWLFWTGIA (peptide)
peptide: RRAPGKLTCLA[dS]YCWLFWTGIA
modifications: not fully specified (bridges); printed as RRAPGKLTCLAsYCWLFWTGIA; cysteine pairing not given here
Consider B13, for which the “EC50 [µM], FXa generation assay” value is under 0.5 µM.

B14: RRaPGKLTCLASYCWLFWTGIA (peptide)
peptide: RR[dA]PGKLTCLASYCWLFWTGIA
modifications: not fully specified (bridges); printed as RRaPGKLTCLASYCWLFWTGIA; cysteine pairing not given here
With B14, the “EC50 [µM], FXa generation assay” value is over 1 µM.

B15: RRAPGKLTCLASYCWLFWTGI-MeAla (peptide)
peptide: RRAPGKLTCLASYCWLFWTGI[NMeA]
modifications: not fully specified (C-terminus, bridges); printed as RRAPGKLTCLASYCWLFWTGI-MeAla; cysteine pairing not given here
For the molecule B15, the “EC50 [µM], FXa generation assay” value was over 1 µM.

B16: RRAPGKLTCLASYCW-MeLeu-FWTGIA (peptide)
peptide: RRAPGKLTCLASYCW[NMeL]FWTGIA
modifications: not fully specified (bridges); printed as RRAPGKLTCLASYCW-MeLeu-FWTGIA; cysteine pairing not given here
B16: the “EC50 [µM], FXa generation assay” value was over 10 µM.

PRI[dR]TVGPGS[dR]SASGKLTCLASYCWLFWTGIA-NH2 (cysteine pairing not given here) [compound 23]: the “EC50 [µM], FXa generation assay with hFIXa” value was under 0.5 µM.

As to PRIRTVGPGSRSASGKLTCLASYCWLFWTGIA-NH2 (cysteine pairing not given here) [compound 21], the “EC50 [µM], FXa generation assay with hFIXa” value is under 0.5 µM.

B17: RRAPGKLTCLASYCWLFWT-Sar-IA (peptide)
peptide: RRAPGKLTCLASYCWLFWT[Sar]IA
modifications: not fully specified; printed as RRAPGKLTCLASYCWLFWT-Sar-IA; cysteine pairing not given here
As for B17, the “EC50 [µM], FXa generation assay” value was under 0.5 µM.
